In the supplement of paper PMC12764529:
± gives the half width of the 95% confidence interval.

Key:
[1] = folding stability dG unfold from trypsin proteolysis; higher = more stable
Procedure: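 Folding stability of de novo designed mini-proteins (<80 aa, no Cys; designed by TrROS, TrMRF, ProteinMPNN and the joint model) was measured by cDNA display proteolysis with trypsin and chymotrypsin. Each protease was used at 11 concentrations in a threefold dilution series plus a no-protease condition. K50 was inferred by Bayesian fitting of sequencing counts, and dG unfold was derived against a sequence-predicted unfolded-state K50 (Tsuboyama et al. method). Sequences shown include variable-length N-terminal GS-type padding (SAGGSAGG...) inside a display construct carrying a PA tag. Rows were kept only if the AF2 dimer inter-PAE was >15, to exclude likely homo-oligomers.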

[2] = folding stability dG unfold from chymotrypsin proteolysis; higher = more stable
Procedure, shortened: (§1)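 K50 was inferred by Bayesian fitting of sequencing counts obtained after protease digestion of designed mini-proteins. Unfolding free energy was derived by comparison with a sequence-predicted unfolded-state K50 and a shared folded-state K50, for each protease or both combined. The mini-proteins were under 80 residues, had no cysteine, were carried in a PA-tagged cDNA display construct, and were kept only if AlphaFold2 dimer inter-PAE exceeded 15.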

[3] = folding stability dG unfold (combined trypsin and chymotrypsin); higher = more stable
Procedure, shortened: as §1

Sequence | folding stability dG unfold [1] [kcal/mol] | folding stability dG unfold [2] [kcal/mol] | folding stability dG unfold [3] [kcal/mol]
MKVVFTEEELPDAKVRKVFDPETGTITETVTYPSTSYTVTSTATITSFDPETGKVTITTTVSAPPEAGIPAS [r1_234_JUSTAS] | 1.87 ± 0.05 | 1.31 ± 0.057 | 1.63 ± 0.13
MKYTLTLTDPTTPTTSTLTVPNDPEKALALLREAKAANPNLTATLTGVTSEEIVEAAKKAGLKDIKPKTAAS [r1_114_JUSTAS] | 0.15 ± 0.13 | 0.301 ± 0.27 | 0.316 ± 0.27
MPAISIEEIIKLAKEAGKPAPPTVIVFNYKFGNTTRTLPVPLSEPVSLAEVEAAIKAADPNVTEITLTFVPS [r1_135_JUSTAS] | 0.551 ± 0.088 | 1.36 ± 0.12 | 1.07 ± 0.16
MRFEFPLEDGGRVEVEMRPLPDGPVVLDVKITLPNGEEITIPFVFPREEFPDMDMEEIARRVVEEAIRLAKS [r1_92_TrMRF] | 3.463 ± 0.033 | 5.035 ± 0.038 | 4.77 ± 0.058
MRITLELEDGTRVEIEFERKEDGTLVVRIKVTRKDGKTVEIEVVVRSKDGKITPEELERALREALEELLKKS [r1_124_TrROS_Hall] | 4.19 ± 0.24 | 4.06 ± 0.33 | 4.21 ± 0.38
MRLRLTFRLPDGTEFRVERVEVLRVEPRGDRVVIPVRAYFTPEERRRLEELIPGLRDRPPLVVEVEIVLTGS [r1_35_TrMRF] | 3.05 ± 0.083 | 4.38 ± 0.055 | 3.96 ± 0.072
MRRFEFPETGLVVPVVPSPDGRYRVRIYRPGGELVLEVELPDLPIPEGSDAEIRIPLKDLPPDLVTFVEPES [r1_263_TrMRF] | 0.819 ± 0.054 | 1.46 ± 0.09 | 1.21 ± 0.11
MSEEERKKAAEERSKPPPVEIKVEVEVVKNEDGEEYLRVRVTVVDPETGEVIEEREFVVRREDLEELLKALS [r1_415_TrROS_Hall] | 3.7 ± 0.16 | 3.57 ± 0.15 | 3.45 ± 0.27
MSEKTFVVEVKVESPEEAEELIEKLKEKLSGEKYEVKIEKVEVSPDGTVKVHITFKPGVPEEFIKKALEEES [r1_485_TrMRF] | 2.28 ± 0.13 | 2.97 ± 0.086 | 2.7 ± 0.11
MTPDDMKDPNGMPPEDMWMVEIYVPRRDPEDGGPKWKPVGTIFIPPGMDPEELNEIIEELPGLDLIEIYPMS [r1_132_TrROS] | 1.03 ± 0.089 | 1.42 ± 0.043 | 1.33 ± 0.14
MVITPEEVAEMLGVSPEELAALPLEELAQRILEVLPAGVATSVTVERDPARGTTTITVTLSDGKNIDVTLES [r1_340_JUSTAS] | 4.41 ± 0.33 | 4.61 ± 0.47 | > 6
NIRITDIEMYPFPNNNQPQMEFTLEWPNGPRRTVEFELPGQEMEVYVDPKKGEIWFYFPNNGMFMKITIEPS [r1_125_TrROS] | 1.37 ± 0.068 | 2.97 ± 0.1 | 2.63 ± 0.35
NKAQKLARSLARKFMRPHGYPMEIDPENNSIRFPNGEPIMEIPIDIVLLDDDGKIVEEINIPIRIRMRPPKS [r1_318_TrROS] | 0.695 ± 0.16 | 0.782 ± 0.27 | 0.762 ± 0.23
PDNEPPQWYRVWIPIDPEDGKIEVKPGGSTMTIDLPDGRPIEFYVPQGMSPSDIKNWAKGIAKELAEELKNS [r1_25_TrROS] | 1.54 ± 0.076 | 1.58 ± 0.18 | 1.52 ± 0.2
PFDIRINVEYERDPDNGKEYIEVSIMVWDGNPEQARDIAKEILEEHFGWKIKDVKVERFPDMYMITFKIRLS [r1_337_TrROS] | 3.46 ± 0.12 | 4.18 ± 0.082 | 3.78 ± 0.32
PKWYEMNITINLPPDDPQKVKELKDALKKRNPDYKVKDIQFNPDDGQITINVWMPPQDQNRFQKAIKELLGS [r1_443_TrROS] | 1.86 ± 0.062 | 2.31 ± 0.025 | 2.12 ± 0.084
PMIAPARLPDGSQTVSIFNANGELLVEAVVENDPELIEEAIEKLFEALPNIKPEELHVSVSDPETGESREIS [r1_55_TrMRF] | 1.05 ± 0.049 | 0.345 ± 0.17 | 0.671 ± 0.19
QRVLPFKNPDGDYWVMIMNPNGDPLVEHRIPNDPEQMEKAIHKLMEQLPNFDPEDLRIAVMNPKNGESQEIS [r1_55_TrROS] | 0.222 ± 0.16 | 0.868 ± 0.12 | 0.61 ± 0.13
SAAEPPPVYLVRITVKVPPGVKPLPPGAVVTYDPATGTLTVYVLMTADEIDALAAAPGVEITDIEVIKLDSA [r9_827_TrROS_Hall] | 3.16 ± 0.22 | 4.94 ± 0.28 | 4.59 ± 0.24
SAAKITEVDVEVGGDTITTTFRLEIDGKPYLAVTRLEPLTDPDGNPRFIAVTELYDEDGNLVATLPSDLSAG [r14_465_TrMRF] | 1.59 ± 0.032 | 2.325 ± 0.018 | 2.06 ± 0.059

Sequence | folding stability dG unfold [1] [kcal/mol] | folding stability dG unfold [2] [kcal/mol] | folding stability dG unfold [3] [kcal/mol]
SAANTEEITITVPLTDPETGEERTVTIPVKYVNTNKPYKTPNGSTKTIPVPKSTVIKEAEEEAKKIFESSSA [r9_698_JUSTAS] | -0.381 ± 0.95 | 0.213 ± 0.3 | -0.369 ± 0.56
SAAPDEVVTLEFTVPVVTTFEPGAPYVAPARLTVTFHPPDRVEIRLVSPDGRLVATRTVPPSVLLSEVISAG [r14_559_TrMRF] | 1.62 ± 0.032 | 2.03 ± 0.041 | 1.88 ± 0.081
SAAPVRVEVEYDPERGVLRVRLYIPATSPEEARELVERFFAALGAEARITENPETGTFVVEVDIRLPPASAG [r14_424_TrMRF] | 4.09 ± 0.09 | 5.15 ± 0.056 | 4.92 ± 0.074
SAARKIAKKLKEAFPNFPIKDIEITEYEPNPNGRPYMNISIQFPNGGKMEIQFDDPEHPEIREAIREIMSAG [r14_143_TrROS] | 1.59 ± 0.11 | 1.69 ± 0.086 | 1.49 ± 0.19
SAATSSTSISIPASTTSLEDVRATLAALGYPPERIVALEVVKVEPGSTKITVTLERPDGTRRTVTVTSASAG [r14_30_JUSTAS] | 3.14 ± 0.054 | 2.388 ± 0.011 | 2.76 ± 0.058
SADEALRRLLENMTPEELAALLAPAVPGPPVEVLVVPREVLPEVLRRLREEFDVEFEEEGDFVRIVVRGSAG [r14_7_TrMRF] | 2.28 ± 0.029 | 2.915 ± 0.016 | 2.73 ± 0.04
SADHKFEIDINVFEHDGWRYIMIPVKYDDPQDVDEAAEKILREFGIPPNFNVNVMRSPNEVWINIRIPYSAG [r14_804_TrROS] | 2.08 ± 0.06 | 2.85 ± 0.077 | 2.53 ± 0.15
SADLAAELEEGGFVVTITETVVSVTPQTLEKDSFVVEKDVVTTITVTPPPVAPPPPDPANLRDAAGAPVSAG [r14_569_JUSTAS] | -0.0411 ± 0.041 | 1.01 ± 0.023 | 0.798 ± 0.084
SADLAKNIAKKLNPDIKDVQIKDIELQPNPDNGYPVIKVELEVKMNDGPYKKSIWFMPNGFQIKIQPVPSAG [r14_397_TrROS] | 0.783 ± 0.17 | 1.77 ± 0.21 | 1.44 ± 0.29
SADPGDTVELEFWLPPGMNPEFVEQMEDEIRNILRDLGLEVDVKVEPDPDNGYVPVTITITKEQLKDLFSAG [r14_602_TrROS] | 1.93 ± 0.12 | 1.74 ± 0.1 | 1.82 ± 0.18
SADPLSSILSQALSVEFDPETGKVTITTKDKSIVEKALEEGAENATLTESEDDIYTATIDLPPLPEGVLSAG [r14_115_TrMRF] | 0.576 ± 0.12 | -0.155 ± 0.085 | 0.12 ± 0.39
SAEEELRKALENMSDEELEALLRAAAPPPKTVTIRLSEEELEKLAQELADEYNVTVTVEVDGKTLTLTLSAG [r14_7_TrROS_Hall] | 1.69 ± 0.024 | 1.74 ± 0.051 | 1.76 ± 0.049
SAEELARRLRELGLEVEIVRIERERRPDGTIRIEVRLDGELVAELEVRLPPPPPPVEVVRDADGRERRVRSA [r9_442_TrROS_Hall] | 1.63 ± 0.18 | 1.82 ± 0.4 | 1.9 ± 0.27
SAEEPEVVRLEIRITVVERDEDGRLREREVTLEVEVLPDGRVVIRVDGRVFVIDLETGELVEVLEDVEPSAG [r14_821_TrROS_Hall] | 3.77 ± 0.099 | 4.14 ± 0.081 | 4.02 ± 0.089
SAEKEYKVKVKVKIEIVELSEEELENLPPGALVIEVDGKLYLMRIEVEEVEVEEVPEEPEVDEETGELLSAG [r14_126_TrROS_Hall] | 2.28 ± 0.16 | 3.86 ± 0.1 | 3.33 ± 0.17
SAEKIYYKVKVKVEIEKDGKPDIELEIEFIVSPEIPPEKVKEFIEKFLKSKGYKIKKIEIETEPIPSLESAG [r14_979_TrMRF] | 3.95 ± 0.31 | 4.86 ± 0.13 | 5.03 ± 0.29
SAEKKTVRVVLEITLPPGLKPGDTITVKIEVDGKVYEAKILRVEEVPPGQTVRIVLELPAEDVKITIEPSAG [r14_554_TrROS_Hall] | 3.21 ± 0.079 | 4.06 ± 0.08 | 3.81 ± 0.071
SAEKPPVVTLEIEIEIVVKDENGKTHKRKFRLTVTFYPDGTVEISIYDENGELIETITLPPGATLEELLSAG [r14_559_TrROS_Hall] | 2.26 ± 0.083 | 3.99 ± 0.15 | 3.61 ± 0.11
SAELLEELLKKAREEAEKEGKKVEIHLVLVVEKDENGKVTFTEEEKELIKKLKEAFPDVEIKIEVVELPSAG [r14_636_TrROS_Hall] | 2.83 ± 0.18 | 3.45 ± 0.16 | 3.28 ± 0.13
SAELPPGMRLVIDDIEPMRNNGKPMLMIKLSIYDPAKPGKEITHWTIMVTNDNIMAIQPTTYRIPPDDISAG [r14_651_TrROS] | 2.64 ± 0.075 | 2.63 ± 0.12 | 2.57 ± 0.22
